Columns and labels:
[1] = molecular target: MLL transactivation domain (Homo sapiens) (UniProt Q03164); conditions: cited from earlier work
[2] = molecular target: KIX domain (residues 586-672) of mouse CBP, wild type (mouse) (UniProt P45481); test: ITC
[3] = molecular target: KIX domain (residues 586-672) of mouse CBP, wild type (mouse) (UniProt P45481); test: NMR titration
[4] = molecular target: KIX domain (residues 586-672) of mouse CBP, L628A (mouse) (UniProt P45481); test: NMR titration

CBP KIX (from UniProt P45481)
Kd [1]: 2.8 µM

Human MLL transactivation domain (2842-2469 as printed) (domain or fragment)
Kd [2]: 2.1 µM
Kd2 (secondary site, two-site model) [3]: 920 µM
percent of KIX in the MLL-bound form (1:1 KIX:MLL) [3]: 94%
Kd1 (primary site, two-site model) [4]: 220 µM
Kd2 (secondary site, two-site model) [4]: 1.63 mM
percent of KIX in the MLL-bound form (1:2 KIX:MLL) [4]: 74%

From paper PMC2993637
